{"source": "patent US20170015720A1", "about": "(published 2017)", "binders": {"B1": {"name": "TCRCD8-mC16#7 (TCR, V domains shown)", "Valpha": "GDSVTQTEGQVALSEEDFLTIHCNYSASGYPALFWYVQYPGEGPQFLFRASRDKEKGSSRGFEATYDKGTTSFHLRKASVQESDSAVYYCALGNNYAQGLTFGLGTRVSVFP", "Vbeta": "EAAVTQSPRSKVAVTGGKVTLSCHQTNNHDYMYWYRQDTGHGLRLIHYSYVADSTEKGDIPDGYKASRPSQENFSLILELASLSQTAVYFCASSTGNERLFFGHGTKLSVL"}, "B2": {"name": "TCRCD8-mC16#12 (TCR, V domains shown)", "Valpha": "GEQVEQRPPHLSVREGDSAVITCTYTDPNSYYFFWYKQEPGASLQLLMKVFSSTEINEGQGFTVLLNKKDKRLSLNLTAAHPGDSAAYFCAVESSSFSKLVFGQGTSLSVVP", "Vbeta": "NSKVIQTPRYLVKGQGQKAKMRCIPEKGHPVVFWYQQNKNNEFKFLINFQNQEVLQQIDMTEKRFSAECPSNSPCSLEIQSSEAGDSALYLCASSLTGGAQDTQYFGPGTRLLVL"}, "B3": {"name": "TCRCD8-mC16#8 (TCR, V domains shown)", "Valpha": "AQKVTQTQTSISVVEKTTVTMDCVYETRDSSYFLFWYKQTASGEIVFLIRQDSYKKENATVGHYSLNFQKPKSSIGLIITATQIEDSAVYFCAMREAANSGTYQRFGTGTKLQVVP", "Vbeta": "DPKIIQKPKYLVAVTGSEKILICEQYLGHNAMYWYRQSAKKPLEFMFSYSYQKLMDNQTASSRFQPQSSKKNHLDLQITALKPDDSATYFCASSQQNSGNTLYFGEGSRLIVV"}, "B4": {"name": "TCRCD8-mC16#18 (TCR, V domains shown)", "Valpha": "GDSVTQTEGPVTVSESESLIINCTYSATSIAYPNLFWYVRYPGEGLQLLLKVITAGQKGSSRGFEATYNKETTSFHLQKASVQESDSAVYYCALGETGSFNKLTFGAGTRLAVCP", "Vbeta": "NSKVIQTPRYLVKGQGQKAKMRCIPEKGHPVVFWYQQNKNNEFKFLINFQNQEVLQQIDMTEKRFSAECPSNSPCSLEIQSSEAGDSALYLCASSLGIYEQYFGPGTRLTVL"}, "B5": {"name": "TCRCD8-mC16#1 (TCR, V domains shown)", "Valpha": "AQSVTQPDARVTVSEGASLQLRCKYSYFGTPYLFWYVQYPRQGLQLLLKYYPGDPVVQGVNGFEAEFSKSNSSFHLRKASVHWSDWAVYFCAVSMSSGTYQRFGTGTKLQVVP", "Vbeta": "DMKVTQMPRYLIKRMGENVLLECGQDMSHETMYWYRQDPGLGLQLIYISYDVDSNSEGDIPKGYRVSRKKREHFSLILDSAKTNQTSVYFCASSSQNQDTQYFGPGTRLLVL"}, "B6": {"name": "TCRCD8-mC16#2 (TCR, V domains shown)", "Valpha": "GDSVTQTEGQVTVSESKSLIINCTYSATSIGYPNLFWYVRYPGEGLQLLLKVITAGQKGSSRGFEATYNKEATSFHLQKASVQESDSAVYYCALNNQGKLIFGQGTKLSIKP", "Vbeta": "EAAVTQSPRNKVAVTGGKVTLSCNQTNNHNNMYWYRQDTGHGLRLIHYSYGAGSTEKGDIPDGYKASRPSQENFSLILELATPSQTSVYFCASGGDSQNTLYFGAGTRLSVL"}, "B7": {"name": "TCRCD8-mC16#14 (TCR, V domains shown)", "Valpha": "GDQVEQSPSALSLHEGTGSALRCNFTTTMRAVQWFRKNSRGSLINLFYLASGTKENGRLKSAFDSKERYSTLHIRDAQLEDSGTYFCAAEGGGNYKPTFGKGTSLVVHP", "Vbeta": "AQTIHQWPVAEIKAVGSPLSLGCTIKGKSSPNLYWYWQATGGTLQQLFYSITVGQVESVVQLNLSASRPKDDQFILSTEKLLLSHSGFYLCAWSPPINTEVFFGKGTRLTVV"}}}
{"target": "T1, CLDN6 (Claudin-6) peptide on HLA-A*02:01 (human)", "T1 peptide": "QILGVVLTL", "experiment": "cytokine release"}
{"binder": "B1", "binding result": "recognises"}
{"target": "T2, CLDN6 (Claudin-6) peptide on HLA-A*02:01 (human)", "T2 peptide": "ALFGLLVYL", "experiment": "killing"}
{"binder": "B2", "binding result": "recognises"}
{"binder": "B3", "binding result": "recognises"}
{"binder": "B4", "binding result": "recognises"}
{"binder": "B5", "binding result": "recognises"}
{"binder": "B6", "binding result": "recognises"}
{"binder": "B7", "binding result": "recognises"}
